# According to US20240116997A1 (BRIGHT PEAK THERAPEUTICS, published 2024):
# “And” between values parts separate entries of the source, which are not always exact repeats. Identical values can stand only once.
# T1: IL-18 receptor (IL-18Rαβ) on cells (UniProt Q13478 19-541; O95256 20-599, limits assumed)
# T1 sequence (looked up) 1: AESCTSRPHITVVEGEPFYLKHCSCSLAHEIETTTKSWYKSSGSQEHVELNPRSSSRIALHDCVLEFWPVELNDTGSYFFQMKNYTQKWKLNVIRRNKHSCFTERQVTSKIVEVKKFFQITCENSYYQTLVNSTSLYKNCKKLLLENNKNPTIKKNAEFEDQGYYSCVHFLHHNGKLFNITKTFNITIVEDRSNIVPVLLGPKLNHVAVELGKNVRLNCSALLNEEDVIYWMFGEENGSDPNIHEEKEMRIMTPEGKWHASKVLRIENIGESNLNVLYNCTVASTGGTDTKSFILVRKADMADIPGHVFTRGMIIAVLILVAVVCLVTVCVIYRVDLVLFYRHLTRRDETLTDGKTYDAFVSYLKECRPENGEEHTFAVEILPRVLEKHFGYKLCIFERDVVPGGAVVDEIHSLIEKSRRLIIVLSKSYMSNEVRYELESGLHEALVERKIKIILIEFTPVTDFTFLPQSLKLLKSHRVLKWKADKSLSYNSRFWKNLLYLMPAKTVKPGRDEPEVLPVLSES
# T1 sequence (looked up) 2: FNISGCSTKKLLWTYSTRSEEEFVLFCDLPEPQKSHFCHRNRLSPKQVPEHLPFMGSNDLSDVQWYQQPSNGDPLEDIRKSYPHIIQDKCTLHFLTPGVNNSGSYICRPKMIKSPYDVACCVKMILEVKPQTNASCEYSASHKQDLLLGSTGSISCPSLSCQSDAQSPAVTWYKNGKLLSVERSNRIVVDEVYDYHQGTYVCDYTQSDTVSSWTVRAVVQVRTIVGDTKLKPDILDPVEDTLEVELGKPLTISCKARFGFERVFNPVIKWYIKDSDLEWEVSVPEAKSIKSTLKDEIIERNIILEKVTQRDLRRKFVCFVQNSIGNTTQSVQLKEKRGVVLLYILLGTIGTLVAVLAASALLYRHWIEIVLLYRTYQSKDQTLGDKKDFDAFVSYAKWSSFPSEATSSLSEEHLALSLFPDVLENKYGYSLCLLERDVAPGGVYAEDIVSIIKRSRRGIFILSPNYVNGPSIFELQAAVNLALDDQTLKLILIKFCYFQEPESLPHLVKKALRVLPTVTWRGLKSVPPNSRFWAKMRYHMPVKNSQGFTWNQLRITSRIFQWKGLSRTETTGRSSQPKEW
# How the values were obtained:
# [1] = molecular target: T1, IL-18 receptor (IL-18Rαβ) on cells; test: cell-based or functional assay
# [2] = molecular target: T1, IL-18 receptor (IL-18Rαβ) on cells; test: cell-based or functional assay; remark: listed apart in the source
"EC50 (pM), HEK-Blue IL-18R reporter assay [1]","EC50 (nM), IFNγ induction, NK-92 cells [2]",Binder
0.79 pM,0.144 nM,"IL-18 polypeptide SEQ ID NO: 42 (E06K, K53A, S55A, T63A) (ligand) YFGKLKSKLSVIRNLNDQVLFIDQGNRPLFEDMTDSDCRDNAPRTIFIISMYADAQPRGMAVAISVKCEKISTLSCENKIISFKEMNPPDNIKDTKSDIIFFQRSVPGHDNKMQFESSSYEGYFLACEKERDLFKLILKKEDELGDRSIMFTVQNED"
0.7 pM,0.061 nM,"C150 (V11I, T34A, C38A, K53A, C76A, C127A) (ligand) YFGKLESKLSIIRNLNDQVLFIDQGNRPLFEDMADSDARDNAPRTIFIISMYADSQPRGMAVTISVKCEKISTLSAENKIISFKEMNPPDNIKDTKSDIIFFQRSVPGHDNKMQFESSSYEGYFLAAEKERDLFKLILKKEDELGDRSIMFTVQNED"
0.25 pM,0.175 nM,"C152 (V11I, S36A, C38A, K53A, C76A, C127A) (ligand) YFGKLESKLSIIRNLNDQVLFIDQGNRPLFEDMTDADARDNAPRTIFIISMYADSQPRGMAVTISVKCEKISTLSAENKIISFKEMNPPDNIKDTKSDIIFFQRSVPGHDNKMQFESSSYEGYFLAAEKERDLFKLILKKEDELGDRSIMFTVQNED"
0.17 pM,0.087 nM,"C144 (V11I, C38A, K53A, T63A, C76A, C127A) (ligand) YFGKLESKLSIIRNLNDQVLFIDQGNRPLFEDMTDSDARDNAPRTIFIISMYADSQPRGMAVAISVKCEKISTLSAENKIISFKEMNPPDNIKDTKSDIIFFQRSVPGHDNKMQFESSSYEGYFLAAEKERDLFKLILKKEDELGDRSIMFTVQNED"
0.8 pM,0.079 nM,"C146 (SEQ ID NO: 79; V11I, C38A, M51G, K53A, C76A, C127A) (ligand) YFGKLESKLSIIRNLNDQVLFIDQGNRPLFEDMTDSDARDNAPRTIFIISGYADSQPRGMAVTISVKCEKISTLSAENKIISFKEMNPPDNIKDTKSDIIFFQRSVPGHDNKMQFESSSYEGYFLAAEKERDLFKLILKKEDELGDRSIMFTVQNED"
0.17 pM,0.006 nM,"IL-18 polypeptide SEQ ID NO: 62 (E6K, C38A, K53A, C127A) (ligand) YFGKLKSKLSVIRNLNDQVLFIDQGNRPLFEDMTDSDARDNAPRTIFIISMYADSQPRGMAVTISVKCEKISTLSCENKIISFKEMNPPDNIKDTKSDIIFFQRSVPGHDNKMQFESSSYEGYFLAAEKERDLFKLILKKEDELGDRSIMFTVQNED"
–,> 55 nM,"IL-18 polypeptide SEQ ID NO: 35 (Y01G, F02A, E06K, M51G, K53A, D54A, S55A, T63A) (ligand) GAGKLKSKLSVIRNLNDQVLFIDQGNRPLFEDMTDSDCRDNAPRTIFIISGYAAAQPRGMAVAISVKCEKISTLSCENKIISFKEMNPPDNIKDTKSDIIFFQRSVPGHDNKMQFESSSYEGYFLACEKERDLFKLILKKEDELGDRSIMFTVQNED"
3.63 pM,0.037 nM,"C145 (V11I, C38A, K53A, S55A, C76A, C127A) (ligand) YFGKLESKLSIIRNLNDQVLFIDQGNRPLFEDMTDSDARDNAPRTIFIISMYADAQPRGMAVTISVKCEKISTLSAENKIISFKEMNPPDNIKDTKSDIIFFQRSVPGHDNKMQFESSSYEGYFLAAEKERDLFKLILKKEDELGDRSIMFTVQNED"
9.12 pM,0.962 nM,"IL-18 polypeptide SEQ ID NO: 54 (E06K, K53A, C38S, C68S, C76S, C127S, K70C) (ligand) YFGKLKSKLSVIRNLNDQVLFIDQGNRPLFEDMTDSDSRDNAPRTIFIISMYADSQPRGMAVTISVKSECISTLSSENKIISFKEMNPPDNIKDTKSDIIFFQRSVPGHDNKMQFESSSYEGYFLASEKERDLFKLILKKEDELGDRSIMFTVQNED"
7.28 pM,0.187 nM,"C148 (F2A, V11I, C38A, K53A, C76A, C127A) (ligand) YAGKLESKLSIIRNLNDQVLFIDQGNRPLFEDMTDSDARDNAPRTIFIISMYADSQPRGMAVTISVKCEKISTLSAENKIISFKEMNPPDNIKDTKSDIIFFQRSVPGHDNKMQFESSSYEGYFLAAEKERDLFKLILKKEDELGDRSIMFTVQNED"
–,0.069 nM,"IL-18 polypeptide SEQ ID NO: 9 (E6K, C38A, K53A, C68A, D98C) (ligand) YFGKLKSKLSVIRNLNDQVLFIDQGNRPLFEDMTDSDARDNAPRTIFIISMYADSQPRGMAVTISVKAEKISTLSCENKIISFKEMNPPDNIKDTKSCIIFFQRSVPGHDNKMQFESSSYEGYFLACEKERDLFKLILKKEDELGDRSIMFTVQNED"
–,0.075 nM,"IL-18 polypeptide SEQ ID NO: 5 (E6K, V11I, C38A, K53A, T63A, C68A, C76A, M86C, C127A) (ligand) YFGKLKSKLSIIRNLNDQVLFIDQGNRPLFEDMTDSDARDNAPRTIFIISMYADSQPRGMAVAISVKAEKISTLSAENKIISFKECNPPDNIKDTKSDIIFFQRSVPGHDNKMQFESSSYEGYFLAAEKERDLFKLILKKEDELGDRSIMFTVQNED"
–,0.022 nM,"IL-18 polypeptide SEQ ID NO: 4 (E6K, C38A, K53A, C68A, M86C) (ligand) YFGKLKSKLSVIRNLNDQVLFIDQGNRPLFEDMTDSDARDNAPRTIFIISMYADSQPRGMAVTISVKAEKISTLSCENKIISFKECNPPDNIKDTKSDIIFFQRSVPGHDNKMQFESSSYEGYFLACEKERDLFKLILKKEDELGDRSIMFTVQNED"
6.6 pM,0.015 nM,"C149 (V11I, E31A, C38A, K53A, C76A, C127A) (ligand) YFGKLESKLSIIRNLNDQVLFIDQGNRPLFADMTDSDARDNAPRTIFIISMYADSQPRGMAVTISVKCEKISTLSAENKIISFKEMNPPDNIKDTKSDIIFFQRSVPGHDNKMQFESSSYEGYFLAAEKERDLFKLILKKEDELGDRSIMFTVQNED"
0.203 pM,0.015 nM,"IL-18 polypeptide SEQ ID NO: 60 (E6K, C38Q, K53A) (ligand) YFGKLKSKLSVIRNLNDQVLFIDQGNRPLFEDMTDSDQRDNAPRTIFIISMYADSQPRGMAVTISVKCEKISTLSCENKIISFKEMNPPDNIKDTKSDIIFFQRSVPGHDNKMQFESSSYEGYFLACEKERDLFKLILKKEDELGDRSIMFTVQNED"
0.98 pM,0.012 nM,"C143 (V11I, C38A, K53A, C76A, C127A) (ligand) YFGKLESKLSIIRNLNDQVLFIDQGNRPLFEDMTDSDARDNAPRTIFIISMYADSQPRGMAVTISVKCEKISTLSAENKIISFKEMNPPDNIKDTKSDIIFFQRSVPGHDNKMQFESSSYEGYFLAAEKERDLFKLILKKEDELGDRSIMFTVQNED"
0.86 pM and 0.53 pM,0.138 nM,"IL-18 polypeptide SEQ ID NO: 57 (E6K, C38S, K53A) (ligand) YFGKLKSKLSVIRNLNDQVLFIDQGNRPLFEDMTDSDSRDNAPRTIFIISMYADSQPRGMAVTISVKCEKISTLSCENKIISFKEMNPPDNIKDTKSDIIFFQRSVPGHDNKMQFESSSYEGYFLACEKERDLFKLILKKEDELGDRSIMFTVQNED"
1.77 pM,0.0268 nM,"IL-18 polypeptide SEQ ID NO: 50 (E06K, K53A, T63A) (ligand) YFGKLKSKLSVIRNLNDQVLFIDQGNRPLFEDMTDSDCRDNAPRTIFIISMYADSQPRGMAVAISVKCEKISTLSCENKIISFKEMNPPDNIKDTKSDIIFFQRSVPGHDNKMQFESSSYEGYFLACEKERDLFKLILKKEDELGDRSIMFTVQNED"
0.268 pM,0.045 nM,"IL-18 polypeptide SEQ ID NO: 59 (E6K, C38A, K53A) (ligand) YFGKLKSKLSVIRNLNDQVLFIDQGNRPLFEDMTDSDARDNAPRTIFIISMYADSQPRGMAVTISVKCEKISTLSCENKIISFKEMNPPDNIKDTKSDIIFFQRSVPGHDNKMQFESSSYEGYFLACEKERDLFKLILKKEDELGDRSIMFTVQNED"
13.1 pM,0.033 nM,"C151 (V11I, D35A, C38A, K53A, C76A, C127A) (ligand) YFGKLESKLSIIRNLNDQVLFIDQGNRPLFEDMTASDARDNAPRTIFIISMYADSQPRGMAVTISVKCEKISTLSAENKIISFKEMNPPDNIKDTKSDIIFFQRSVPGHDNKMQFESSSYEGYFLAAEKERDLFKLILKKEDELGDRSIMFTVQNED"
1 pM,0.256 nM,"C147 (V11I, C38A, K53A, D54A, C76A, C127A) (ligand) YFGKLESKLSIIRNLNDQVLFIDQGNRPLFEDMTDSDARDNAPRTIFIISMYAASQPRGMAVTISVKCEKISTLSAENKIISFKEMNPPDNIKDTKSDIIFFQRSVPGHDNKMQFESSSYEGYFLAAEKERDLFKLILKKEDELGDRSIMFTVQNED"
